Experiments:
[1] = molecular target: atToc132 G-domain bait (Arabidopsis thaliana) (UniProt Q9SLF3); experiment: two-hybrid; pairwise split-ubiquitin yeast two-hybrid of isolated NubG-preys with Toc159G, Toc132G or Toc132AG bait in NMY51; growth on SD-LWHA (3-AT) and quantitative β-Gal assay, activity relative to a reference bait set to 100%
[2] = molecular target: atToc132 A- plus G-domains bait (Arabidopsis thaliana) (UniProt Q9SLF3); experiment: as above
[3] = molecular target: atToc159 G-domain bait (Arabidopsis thaliana) (UniProt O81283); experiment: as above
[4] = molecular target: T1, FNR1(TP)-DHFRHis (Arabidopsis thaliana | not stated); experiment: pull-down; solid phase binding assay: His-tagged TP-DHFR or DHFR immobilised on Ni-NTA resin (up to 800 pmol), incubated with 35S-labelled in vitro translated receptor, 25°C, 30 min, 50 mM Hepes-KOH pH 7.5, 5 mM MgCl2, 40 mM KOAc, 0.1% Triton X-100, 40 mM imidazole, 0.1 mM GTP; phosphorimager
T1 sequence (Q9FKW6 whole entry, looked up): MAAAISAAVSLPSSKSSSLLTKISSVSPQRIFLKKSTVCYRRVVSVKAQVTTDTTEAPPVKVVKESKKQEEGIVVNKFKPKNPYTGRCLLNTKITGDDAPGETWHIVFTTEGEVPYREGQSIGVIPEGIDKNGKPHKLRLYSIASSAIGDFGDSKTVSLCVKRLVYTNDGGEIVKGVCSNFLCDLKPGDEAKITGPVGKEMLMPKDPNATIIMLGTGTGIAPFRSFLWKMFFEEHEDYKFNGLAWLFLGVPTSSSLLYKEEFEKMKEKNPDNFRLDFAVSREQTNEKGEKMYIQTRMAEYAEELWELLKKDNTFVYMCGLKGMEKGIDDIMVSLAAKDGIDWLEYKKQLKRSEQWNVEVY

[5] = molecular target: T2, LHCA4(TP)-DHFRHis (Arabidopsis thaliana | not stated); experiment: as above
T2 sequence (P27521 whole entry, looked up): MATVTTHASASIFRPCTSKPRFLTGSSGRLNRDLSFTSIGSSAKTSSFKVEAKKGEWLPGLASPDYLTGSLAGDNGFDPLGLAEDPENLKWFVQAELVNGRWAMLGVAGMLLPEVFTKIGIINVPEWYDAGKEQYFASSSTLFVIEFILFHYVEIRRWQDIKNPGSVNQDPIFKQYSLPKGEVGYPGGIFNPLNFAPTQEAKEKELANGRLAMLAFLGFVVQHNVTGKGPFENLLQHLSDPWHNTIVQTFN

Chain of atToc132 G-domain bait (Arabidopsis thaliana) (Q9SLF3 456-794): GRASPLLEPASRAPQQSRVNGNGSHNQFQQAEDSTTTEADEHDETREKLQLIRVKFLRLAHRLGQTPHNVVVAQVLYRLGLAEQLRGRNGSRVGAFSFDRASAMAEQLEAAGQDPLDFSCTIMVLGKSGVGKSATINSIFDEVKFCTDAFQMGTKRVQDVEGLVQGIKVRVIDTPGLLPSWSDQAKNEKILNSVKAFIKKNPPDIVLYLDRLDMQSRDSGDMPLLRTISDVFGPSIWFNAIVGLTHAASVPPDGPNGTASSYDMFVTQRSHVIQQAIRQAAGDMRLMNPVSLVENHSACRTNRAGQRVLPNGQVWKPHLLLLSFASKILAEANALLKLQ
Chain of atToc132 A- plus G-domains bait (Arabidopsis thaliana) (Q9SLF3 1-794): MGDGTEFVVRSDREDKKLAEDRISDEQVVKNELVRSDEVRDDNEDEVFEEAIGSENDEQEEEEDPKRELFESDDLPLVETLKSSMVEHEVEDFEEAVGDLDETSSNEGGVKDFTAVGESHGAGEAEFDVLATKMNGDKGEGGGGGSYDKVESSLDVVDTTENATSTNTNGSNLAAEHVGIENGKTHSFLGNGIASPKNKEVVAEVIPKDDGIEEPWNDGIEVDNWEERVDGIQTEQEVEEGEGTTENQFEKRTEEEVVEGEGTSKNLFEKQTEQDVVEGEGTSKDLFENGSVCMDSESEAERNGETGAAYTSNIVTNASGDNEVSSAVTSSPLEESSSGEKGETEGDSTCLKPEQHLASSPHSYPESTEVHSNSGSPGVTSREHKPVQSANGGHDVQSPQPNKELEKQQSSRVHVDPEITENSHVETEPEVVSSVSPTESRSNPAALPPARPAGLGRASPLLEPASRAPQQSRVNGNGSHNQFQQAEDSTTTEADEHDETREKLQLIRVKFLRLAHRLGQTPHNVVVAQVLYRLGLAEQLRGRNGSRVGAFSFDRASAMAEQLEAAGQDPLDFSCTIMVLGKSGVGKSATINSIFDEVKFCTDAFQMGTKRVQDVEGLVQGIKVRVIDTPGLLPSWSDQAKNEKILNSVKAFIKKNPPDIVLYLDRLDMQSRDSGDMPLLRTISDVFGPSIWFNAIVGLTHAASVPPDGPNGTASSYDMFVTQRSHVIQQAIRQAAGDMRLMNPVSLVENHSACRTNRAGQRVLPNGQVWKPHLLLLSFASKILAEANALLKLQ
Chain of atToc159 G-domain bait (Arabidopsis thaliana) (O81283 728-1092): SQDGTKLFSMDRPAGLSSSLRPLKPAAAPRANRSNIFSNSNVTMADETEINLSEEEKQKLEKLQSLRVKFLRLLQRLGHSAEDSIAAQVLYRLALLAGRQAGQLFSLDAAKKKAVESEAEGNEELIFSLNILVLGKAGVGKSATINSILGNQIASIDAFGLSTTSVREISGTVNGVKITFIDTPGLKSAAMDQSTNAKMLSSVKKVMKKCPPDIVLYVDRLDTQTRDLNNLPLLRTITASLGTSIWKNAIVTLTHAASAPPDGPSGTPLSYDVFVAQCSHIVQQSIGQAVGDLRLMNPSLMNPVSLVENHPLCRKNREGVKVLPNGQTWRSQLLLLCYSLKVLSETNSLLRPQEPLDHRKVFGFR
Chain of [35S]atToc159AG (O81283 1-1092): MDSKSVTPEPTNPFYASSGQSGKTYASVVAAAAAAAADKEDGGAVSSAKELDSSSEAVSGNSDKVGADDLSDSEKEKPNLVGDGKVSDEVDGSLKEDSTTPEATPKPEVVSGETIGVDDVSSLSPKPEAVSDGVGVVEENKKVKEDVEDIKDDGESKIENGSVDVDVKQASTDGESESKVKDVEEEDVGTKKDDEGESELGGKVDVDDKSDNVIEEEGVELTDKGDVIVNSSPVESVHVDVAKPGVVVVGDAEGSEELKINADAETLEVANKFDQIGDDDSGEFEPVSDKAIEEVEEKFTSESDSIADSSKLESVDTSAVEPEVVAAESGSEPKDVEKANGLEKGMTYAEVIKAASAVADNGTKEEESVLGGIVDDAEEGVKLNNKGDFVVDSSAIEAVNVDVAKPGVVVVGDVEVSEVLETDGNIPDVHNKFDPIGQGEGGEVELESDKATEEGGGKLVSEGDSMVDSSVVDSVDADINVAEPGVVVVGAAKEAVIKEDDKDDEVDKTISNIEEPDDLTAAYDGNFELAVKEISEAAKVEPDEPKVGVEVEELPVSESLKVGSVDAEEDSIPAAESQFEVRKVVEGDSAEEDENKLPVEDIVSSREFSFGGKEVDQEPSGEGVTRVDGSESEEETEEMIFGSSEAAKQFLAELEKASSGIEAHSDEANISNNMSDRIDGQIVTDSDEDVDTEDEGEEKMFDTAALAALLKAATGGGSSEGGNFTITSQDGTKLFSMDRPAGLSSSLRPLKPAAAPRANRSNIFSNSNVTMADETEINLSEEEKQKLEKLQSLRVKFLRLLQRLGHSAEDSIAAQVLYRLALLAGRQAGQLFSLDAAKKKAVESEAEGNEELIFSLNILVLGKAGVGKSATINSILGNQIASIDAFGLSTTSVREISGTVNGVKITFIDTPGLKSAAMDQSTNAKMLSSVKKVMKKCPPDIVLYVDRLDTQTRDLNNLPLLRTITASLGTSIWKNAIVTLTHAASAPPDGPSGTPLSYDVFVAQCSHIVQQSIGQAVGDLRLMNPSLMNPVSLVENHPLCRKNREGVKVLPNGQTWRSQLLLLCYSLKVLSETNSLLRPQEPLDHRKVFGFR
Chain of [35S]atToc132AG (Q9SLF3 1-794): as the sequence (Q9SLF3 1-794) above
Chain of Photosystem I light harvesting complex gene 1 (Q01667 whole entry, one chain of several): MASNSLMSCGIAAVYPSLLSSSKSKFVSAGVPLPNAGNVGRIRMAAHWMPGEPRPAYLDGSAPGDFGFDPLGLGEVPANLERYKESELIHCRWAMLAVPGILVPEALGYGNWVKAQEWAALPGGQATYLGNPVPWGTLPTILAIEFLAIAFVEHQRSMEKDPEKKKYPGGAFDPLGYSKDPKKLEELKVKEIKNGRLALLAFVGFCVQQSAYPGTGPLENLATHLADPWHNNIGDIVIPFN
Chain of Photosystem I subunit D-1 (Q9S7H1 whole entry): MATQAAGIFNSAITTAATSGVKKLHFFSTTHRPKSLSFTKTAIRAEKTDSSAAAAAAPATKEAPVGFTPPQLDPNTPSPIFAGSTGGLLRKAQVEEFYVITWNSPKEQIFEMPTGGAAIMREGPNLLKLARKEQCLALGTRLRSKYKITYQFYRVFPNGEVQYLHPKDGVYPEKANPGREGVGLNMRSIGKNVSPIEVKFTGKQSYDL
Chain of Photosystem II Subunit P-1 (Q42029 whole entry): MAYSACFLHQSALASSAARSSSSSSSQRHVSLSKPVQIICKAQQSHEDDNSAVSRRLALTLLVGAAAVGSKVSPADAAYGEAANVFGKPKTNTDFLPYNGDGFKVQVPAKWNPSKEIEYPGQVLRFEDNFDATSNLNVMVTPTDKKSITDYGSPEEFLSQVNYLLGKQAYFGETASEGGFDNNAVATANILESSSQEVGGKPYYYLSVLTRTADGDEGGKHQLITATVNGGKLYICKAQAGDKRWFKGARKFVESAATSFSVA
Chain of ATP carrier protein 1 (P31167 whole entry): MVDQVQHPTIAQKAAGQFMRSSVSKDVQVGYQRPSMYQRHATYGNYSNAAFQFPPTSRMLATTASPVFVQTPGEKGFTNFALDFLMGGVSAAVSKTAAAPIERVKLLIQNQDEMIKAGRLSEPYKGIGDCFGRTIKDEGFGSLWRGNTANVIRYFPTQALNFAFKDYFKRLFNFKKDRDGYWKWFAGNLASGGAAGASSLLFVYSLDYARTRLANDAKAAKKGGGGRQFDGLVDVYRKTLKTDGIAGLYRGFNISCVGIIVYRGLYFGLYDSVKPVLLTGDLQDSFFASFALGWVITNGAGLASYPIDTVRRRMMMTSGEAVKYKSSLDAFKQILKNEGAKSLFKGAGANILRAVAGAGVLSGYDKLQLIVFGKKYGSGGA
Chain of Photosystem I subunit L (Q9SUI4 whole entry): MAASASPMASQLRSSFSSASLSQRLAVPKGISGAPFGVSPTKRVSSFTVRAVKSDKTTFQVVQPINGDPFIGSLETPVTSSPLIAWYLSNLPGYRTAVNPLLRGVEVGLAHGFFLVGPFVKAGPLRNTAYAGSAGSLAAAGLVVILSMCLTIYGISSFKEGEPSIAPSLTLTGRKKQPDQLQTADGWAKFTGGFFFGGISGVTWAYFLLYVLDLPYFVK
Chain of THI1 -involved in thiamine synthesis (vitamin B) (Q38814 whole entry): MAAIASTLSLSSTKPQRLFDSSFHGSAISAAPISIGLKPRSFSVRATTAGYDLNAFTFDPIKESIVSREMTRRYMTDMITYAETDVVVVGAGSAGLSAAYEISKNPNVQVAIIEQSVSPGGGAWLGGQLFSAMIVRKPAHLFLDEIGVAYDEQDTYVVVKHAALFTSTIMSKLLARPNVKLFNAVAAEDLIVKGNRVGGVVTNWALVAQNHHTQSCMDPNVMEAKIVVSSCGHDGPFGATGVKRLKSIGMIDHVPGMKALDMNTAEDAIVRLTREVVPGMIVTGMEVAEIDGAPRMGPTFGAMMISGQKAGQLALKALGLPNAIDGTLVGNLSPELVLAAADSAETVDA

Row | Substance | % increase in strength of interaction (β-Gal) with Toc132AG against Toc132G [2] [%] | % decrease in strength of interaction (β-Gal) with Toc159G against Toc132G [3] [%] | other results
1 | ATP carrier protein 1 (from UniProt P31167 1-381) (natural protein) |  |  | % increase in strength of interaction (β-Gal) with 132G against 159G [1]: 50.6%
2 | ATPase, F0 complex, subunit B/B’ (from UniProt Q42139 1-219) (natural protein) |  |  | % increase in strength of interaction (β-Gal) with 132G against 159G [1]: 16.5%
3 | Acyl Carrier Protein 2 (from UniProt P25701 1-136) (natural protein) | 62.2 |  | 
4 | Chaperonin 60 Beta (from UniProt P21240 1-600) (natural protein) | 55.8 |  | 
5 | Copper Chaperone (from UniProt O82089 1-121) (natural protein) | 285 |  | relative β-Gal activity with 132G bait, % lower than with 159G bait [1]: 27%
6 | Glucose-6-phosphate transmembrane transporter (from UniProt Q9M5A9 1-388) (natural protein) | 55.2 |  | 
7 | Light-Harvesting Chlorophyll B-Binding Protein 3 (from UniProt Q9S7M0 1-265) (natural protein) |  | -5.52 | 
8 | Light-harvesting chlorophyll-protein complex II subunit B1 (natural protein) |  |  | relative strength of interaction (β-Gal) with Toc132AG against Toc132G, % change [2]: -25.9%; % increase in strength of interaction (β-Gal) with Toc159G against Toc132G [3]: 26.4%
9 | Lipid-transfer protein (natural protein) |  |  | % increase in strength of interaction (β-Gal) with 132G against 159G [1]: 38.1%
10 | Membrane-associated progesterone binding protein 3 (from UniProt Q9M2Z4 1-233) (natural protein) | 115 |  | relative β-Gal activity with 132G bait, % higher than with 159G bait [1]: 77.5%
11 | PGR5-Like A (from UniProt Q8H112 1-324) (natural protein) |  |  | % increase in strength of interaction (β-Gal) with Toc159G against Toc132G [3]: 13%
12 | Photosystem I P Subunit (from UniProt Q8LCA1 1-174) (natural protein) |  | -28.2 | 
13 | Photosystem I light harvesting complex gene 1 (from UniProt Q01667 1-241) (natural protein) |  |  | % increase in strength of interaction (β-Gal) with Toc159G against Toc132G [3]: 11.3%
14 | Photosystem I reaction centre subunit IV (from UniProt Q9S831 1-143) (natural protein) |  | -27.1 | 
15 | Photosystem I subunit D-1 (from UniProt Q9S7H1 1-208) (natural protein) |  | -12.2 | 
16 | Photosystem I subunit E-2 (from UniProt Q9S714 1-145) (natural protein) |  |  | % reduction in strength of interaction (β-Gal) with Toc132AG against Toc132G [2]: 50%; % increase in strength of interaction (β-Gal) with Toc159G against Toc132G [3]: 14.4%
17 | Photosystem I subunit L (from UniProt Q9SUI4 1-219) (natural protein) |  | -26.8 | 
18 | Photosystem II 5 kD protein (natural protein) |  | -26.1 | 
19 | Photosystem II Subunit P-1 (from UniProt Q42029 1-263) (natural protein) |  | -6.7 | 
20 | Photosystem II Subunit S (from UniProt Q9XF91 1-265) (natural protein) |  | -11.9 | 
21 | Plastidial Dihydrolipoamide Acetyltransferase (from UniProt Q9C8P0 1-465) (natural protein) | 33.6 |  | 
22 | Plastocyanin 2 (from UniProt P42699 1-167) (natural protein) |  | -29.6 | 
23 | Rhomboid-Like Protein 11 (from UniProt Q84MB5 1-280) (natural protein) | 98 |  | 
24 | THI1 -involved in thiamine synthesis (vitamin B) (from UniProt Q38814 1-349) (natural protein) |  |  | % increase in strength of interaction (β-Gal) with 132G against 159G [1]: 52%
25 | ThiaminC (from UniProt O82392 1-644) (natural protein) | 60.6 |  | relative β-Gal activity with 132G bait, % higher than with 159G bait [1]: 25.3%
26 | Thioredoxin M-Type 4 (from UniProt Q9SEU6 1-193) (natural protein) | 93.8 |  | relative β-Gal activity with 132G bait, % higher than with 159G bait [1]: 25%
27 | [35S]atToc132AG (from UniProt Q9SLF3 1-794) (domain or fragment) |  |  | percent bound at 800 pmol FNR1(TP)-DHFR [4]: 8.7%; percent bound at 800 pmol LHCA4(TP)-DHFR [5]: 15%
28 | [35S]atToc159AG (from UniProt O81283 1-1092) (domain or fragment) |  |  | percent bound at 800 pmol FNR1(TP)-DHFR [4]: 51.9%; percent bound at 800 pmol LHCA4(TP)-DHFR [5]: 38.2%

Reference: PMC3988174
